B1: F1*; the commonest letter at each place (parent)
chain: GAGACCGCAACTGAAAAGTTGTTATCACTTGTCGTAAGACACTTTGGATGGGTTGAAGTTCTGCACGTAGAAGCAAAAGGC

Variants of: B1
Experiment: fraction ligated after 30 min (ligated reads / total reads); higher = more ligase activity
Conditions: with F1*sub RNA substrate (template-directed ligation), 42 °C
Outline: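 The ligase ribozyme variants were produced by PCR amplification of oligo-pool templates, T7 transcription and purification on gel. Their ligated and unligated forms were gel-separated, then reverse transcribed with barcoded primers before MiSeq sequencing. Core bases were filtered at a quality of ≥20, and fraction ligated per variant was ligated reads over total reads.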

Variant	fraction ligated
GAGACCGCAACTGAAAAGTTGTTATCGCTTGTCATAAGACACTTTGGATGGGTTGAAGTTCTGCACGTAGAAGCAAAAGGC	0.831
GAGACCGCAACTGAAAAGTTGTTATCGCTTGTCCTAAGACACTTTGGATGGGTTGAAGTTCTGCACGTAGAAGCAAAAGGC	0.804
GAGACCGCAACTGAAAAGTTGTTATCGCTTGGCGTAAGACACTTTGGATGGGTTGAAGTTCTGCACGTAGAAGCAAAAGGC	0.827
GAGACCGCAACTGAAAAGTTGTTATCGCTTGACGTAAGACACTTTGGATGGGTTGAAGTTCTGCACGTAGAAGCAAAAGGC	0.795
GAGACCGCAACTGAAAAGTTGTTATCGCTTGCCGTAAGACACTTTGGATGGGTTGAAGTTCTGCACGTAGAAGCAAAAGGC	0.77
GAGACCGCAACTGAAAAGTTGTTATCGCTTGTCGTAAGACACTTTCGATGGGTTGAAGTTCTGCACGTAGAAGCAAAAGGC	0.795
GAGACCGCAACTGAAAAGTTGTTATCGCTTGTCGTAAGACACTTTAGATGGGTTGAAGTTCTGCACGTAGAAGCAAAAGGC	0.83
GAGACCGCAACTGAAAAGTTGTTATCGCTTGTCGTAAGACACTTTTGATGGGTTGAAGTTCTGCACGTAGAAGCAAAAGGC	0.796
GAGACCGCAACTGAAAAGTTGTTATCGCTTGTCGTAAGACAATTTGGATGGGTTGAAGTTCTGCACGTAGAAGCAAAAGGC	0.827
GAGACCGCAACTGAAAAGTTGTTATCGCTTGTCGTAAGACATTTTGGATGGGTTGAAGTTCTGCACGTAGAAGCAAAAGGC	0.817
GAGACCGCAACTGAAAAGTTGTTATCGCTTGTCGTAAGACAGTTTGGATGGGTTGAAGTTCTGCACGTAGAAGCAAAAGGC	0.812
GAGACCGCAACTGAAAAGTTGTTATCGCTTGTCGTAAGACACTTTGGATCGGTTGAAGTTCTGCACGTAGAAGCAAAAGGC	0.161
GAGACCGCAACTGAAAAGTTGTTATCGCTTGTCGTAAGACACTTTGGATAGGTTGAAGTTCTGCACGTAGAAGCAAAAGGC	0.244
GAGACCGCAACTGAAAAGTTGTTATCGCTTGTCGTAAGACACTTTGGATTGGTTGAAGTTCTGCACGTAGAAGCAAAAGGC	0.596
GAGACCGCAACTGAAAAGTTGTTATCTCTTGTCGTAAGACACTTTGGATGGGTTGAAGTTCTGCACGTAGAAGCAAAAGGC	0.8
GAGACCGCAACTGAAAAGTTGTTATCGCTTGTCGTAAGACACTTTGGATGGGTTAAAGTTCTGCACGTAGAAGCAAAAGGC	0.801
GAGACCGCAACTGAAAAGTTGTTATCGCTTGTCGTAAGACACTTTGGATGGGTTCAAGTTCTGCACGTAGAAGCAAAAGGC	0.554

Variant	fraction ligated
GAGACCGCAACTGAAAAGTTGTTATCGCTTGTCGTAAGACACTTTGGATGGGTTTAAGTTCTGCACGTAGAAGCAAAAGGC	0.79
GAGACCGCAACTGAAAAGTTGTTATCGCTTGTCGTAACACACTTTGGATGGGTTGAAGTTCTGCACGTAGAAGCAAAAGGC	0.798
GAGACCGCAACTGAAAAGTTGTTATCGCTTGTCGTAAAACACTTTGGATGGGTTGAAGTTCTGCACGTAGAAGCAAAAGGC	0.83
GAGACCGCAACTGAAAAGTTGTTATCGCTTGTCGTAATACACTTTGGATGGGTTGAAGTTCTGCACGTAGAAGCAAAAGGC	0.824
GAGACCGCAACTGAAAAGTTGTTATCGCTTGTCGTAAGACACTTTGCATGGGTTGAAGTTCTGCACGTAGAAGCAAAAGGC	0.583
GAGACCGCAACTGAAAAGTTGTTATCGCTTGTCGTAAGACACTTTGTATGGGTTGAAGTTCTGCACGTAGAAGCAAAAGGC	0.329
GAGACCGCAACTGAAAAGTTGTTATCGCTTGTCGTAAGACACTTTGAATGGGTTGAAGTTCTGCACGTAGAAGCAAAAGGC	0.805
GAGACCGCAACTGAAAAGTTGTTATCTCTTGTCGTAAGACACTTTGGCTGGGTTGAAGTTCTGCACGTAGAAGCAAAAGGC	0.729
GAGACCGCAACTGAAAAGTTGTTATCGCTAGTCGTAAGACACTTTGGATGGGTTGAAGTTCTGCACGTAGAAGCAAAAGGC	0.839
GAGACCGCAACTGAAAAGTTGTTATCGCTCGTCGTAAGACACTTTGGATGGGTTGAAGTTCTGCACGTAGAAGCAAAAGGC	0.811
GAGACCGCAACTGAAAAGTTGTTATCGCTGGTCGTAAGACACTTTGGATGGGTTGAAGTTCTGCACGTAGAAGCAAAAGGC	0.846
GAGACCGCAACTGAAAAGTTGTTATCGCGTGTCGTAAGACACTTTGGATGGGTTGAAGTTCTGCACGTAGAAGCAAAAGGC	0.806
GAGACCGCAACTGAAAAGTTGTTATCGCATGTCGTAAGACACTTTGGATGGGTTGAAGTTCTGCACGTAGAAGCAAAAGGC	0.829
GAGACCGCAACTGAAAAGTTGTTATCGCCTGTCGTAAGACACTTTGGATGGGTTGAAGTTCTGCACGTAGAAGCAAAAGGC	0.788
GAGACCGCAACTGAAAAGTTGTTATCTCTTGTCGTAAGACGCTTTGGATGGGTTGAAGTTCTGCACGTAGAAGCAAAAGGC	0.776
GAGACCGCAACTGAAAAGTTGTTATCTCTTGTCGTAAGACTCTTTGGATGGGTTGAAGTTCTGCACGTAGAAGCAAAAGGC	0.779
GAGACCGCAACTGAAAAGTTGTTATCTCTTGTCGTAAGACCCTTTGGATGGGTTGAAGTTCTGCACGTAGAAGCAAAAGGC	0.766

From the supplement of paper PMC6755084
